Measurements: patent publication US20240327505A1 (published 2024)

Key:
[1] = target: SARS-CoV-2 Wuhan-1 full-length Spike protein on pseudovirus (SARS-CoV-2, UniProt P0DTC2 14-1273); test: cell-based or functional assay
[2] = target: SARS-CoV-1 spike protein on pseudovirus (SARS-CoV-1, UniProt P59594 14-1255); test: cell-based or functional assay
[3] = target: SARS-CoV-2 spike protein on fully infectious (replication-competent) SARS-CoV-2 virus (SARS-CoV-2, UniProt P0DTC2 14-1273); test: cell-based or functional assay
[4] = target: SARS-CoV-2 Nucleocapsid (N) protein (SARS-CoV-2, UniProt P0DTC9 1-419)
[5] = target: T1, SARS-CoV-2 spike S2 protein (SARS-CoV-2, UniProt P0DTC2 686-1213); test: BLI, as in Example 4
T1 construct: domain: S2

[6] = target: SARS-CoV-2 spike receptor-binding domain (RBD) (SARS-CoV-2, UniProt P0DTC2 319-541)
[7] = target: SARS-CoV-2 spike S1 protein (SARS-CoV-2, UniProt P0DTC2 16-685)
[8] = target: SARS-CoV-2 spike S2 protein (SARS-CoV-2, UniProt P0DTC2 686-1213)
[9] = target: SARS-CoV-2 Nucleocapsid (N) protein (SARS-CoV-2, UniProt P0DTC9 1-419); remark: listed apart in the source

B1: AB-009346 (antibody, V domains shown)
VH: EVQLVESGGGVVRPGGSLRLSCAASGFTFDDYGMSWVRQAPGKGLEWVSGINWNGGSTGYADSVKGRFTISRDNAKNSLYLQMNSLRAEDTALYYCARWPLLGISGYYHYYMDVWGKGTTVTVSS
VL: QSALTQPRSVSGSPGQSVTISCTGTSSDVGGYNYVSWYQQHPGKAPKLMIYDVSKRPSGVPDRFSGSKSGNTASLTISGLQAEDEADYYCCSYAGSYTLLFGGGTKLIVL
- Pseudovirus Neturalization [1]: 0.774 µg/mL
- Pseudovirus Neturalization [2]: > 50 µg/mL
- Neutralization (Infectious virus; (µg/mL)) [3]: 2.14 µg/mL

B2: AB-009791 (antibody, V domains shown)
VH: QLQLQESGPGLVKPSETLSLTCTVSGGSISSSSYYWGWIRQPPGKGLEWIGSIYYSGSTYYNPSLKSRVTISVDTSKNQFSLKLSSVTAADTAVYYCAREPRRVKQWLVVPYYYMDVWGKGTTVTVSS
VL: not shown
- Kd [4]: 4.61 nM
- koff [4]: 8.35e-05 s⁻¹
- kon [4]: 18100 M⁻¹ s⁻¹

B3: AB-009270 (antibody, V domains shown)
VH: QMQLVQSGPEVKKPGTSVKVSCKASGFTFTSSAMQWVRQARGQRLEWIGWIVVGSGNTNYAQKFQERVTITRDMSTSTAYMELSSLRSEDTAVYYCAVNYCSSTSCYDAFDIWGQGTMVTVSS
VL: not shown
- Pseudovirus Neturalization [1]: 0.065 µg/mL
- Pseudovirus Neturalization [2]: > 50 µg/mL
- Neutralization (Infectious virus; (µg/mL)) [3]: 1.37 µg/mL
- binding result [5]: no binding

B4: AB-010021 (antibody, V domains shown)
VH: QMQLVQSGPEVKKPGTSVKVSCKASGFTFTSSAVQWVRQARGQRLEWIGWIVVGSGNTNYAQKFQERVTITRDMSTSTAYMELSSLRSEDTAVYYCAAVYCSGGSCLDAFDIWGQGTMVTVSS
VL: not shown
- Kd [6]: 12.4 nM
- koff [6]: 0.00275 s⁻¹
- kon [6]: 221000 M⁻¹ s⁻¹
- Kd [7]: 12.5 nM
- koff [7]: 0.00214 s⁻¹
- kon [7]: 171000 M⁻¹ s⁻¹

B5: AB-010021 (antibody, V domains shown)
VH: QMQLVQSGPEVKKPGTSVKVSCKASGFTFTSSAVQWVRQARGQRLEWIGWIVVGSGNTNYAQKFQERVTITRDMSTSTAYMELSSLRSEDTAVYYCAAVYCSGGSCLDAFDIWGQGTMVTVSS
VL: not shown
notes: also called AB-0010021
- Pseudovirus Neturalization [1]: 1.56 µg/mL
- Pseudovirus Neturalization [2]: > 50 µg/mL
- binding result [5]: no binding

B6: AB-010020 (antibody, V domains shown)
VH: QMQLVQSGPEVKKPGTSVKVSCKASGFTFTSSAVQWVRQARGQRLEWIGWIVVGSGNTNYAQKFQERVTITRDMSTSTAYMELSSLRSEDTAVYYCAAPACSSTSCYDGFDIWGQGTMVTVSS
VL: not shown
- Pseudovirus Neturalization [1]: 0.004 µg/mL
- Pseudovirus Neturalization [2]: > 50 µg/mL
- binding result [5]: no binding

B7: AB-009281 (antibody, V domains shown)
VH: EVQLVETGGGLIQPGGSLRLSCAASGFTVSSNYMSWVRQAPGKGLEWVSVIYSGGSTYYADSVKGRFTISRDNSKNTLYLQMNSLRAEDTAVYYCARDLYYYGMDVWGQGTTVTVSS
VL: DIQLTQSPSFLSASVGDRVTITCRASQGISSYLAWYQQKPGKAPKLLIYAASTLQSGVPSRFSGSGSGTEFTLTISSLQPEDFATYYCQQLNSYPTFGQGTKVEIK
- Pseudovirus Neturalization [1]: 0.215 µg/mL
- Pseudovirus Neturalization [2]: > 50 µg/mL
- Neutralization (Infectious virus; (µg/mL)) [3]: 33.7 µg/mL

B8: AB-009613 (antibody, V domains shown)
VH: EVQLVESGGGLIQPGGSLRLSCAASGFTVSSNYMSWVRQAPGKGLEWVSVIYSGGSTYYADSVKGRFTISRDNSKNTLYLQMNSLRAEDTAVYYCARDYGDFYFDYWGQGTLVTVSS
VL: not shown
- Pseudovirus Neturalization [1]: 1.53 µg/mL
- Pseudovirus Neturalization [2]: > 50 µg/mL
- Neutralization (Infectious virus; (µg/mL)) [3]: 3.4 µg/mL
- binding result [5]: no binding

B9: AB-009613 (antibody, V domains shown)
VH: EVQLVESGGGLIQPGGSLRLSCAASGFTVSSNYMSWVRQAPGKGLEWVSVIYSGGSTYYADSVKGRFTISRDNSKNTLYLQMNSLRAEDTAVYYCARDYGDFYFDYWGQGTLVTVSS
VL: not shown
- Kd [6]: 4.26 nM
- koff [6]: 0.000313 s⁻¹
- kon [6]: 73400 M⁻¹ s⁻¹
- Kd [7]: 16.1 nM
- koff [7]: 0.00102 s⁻¹
- kon [7]: 63600 M⁻¹ s⁻¹

B10: AB-009661 (antibody, V domains shown)
VH: QVQLVESGGGVVQPGRSLRLSCAASGFTFSSYGMHWVRQAPGKGLEWVAVISYDGSNKYYADSVKGRFTISRDNSKNTLYLQMNSLRAEDTAVYYCAKDYGDYGGMDVWGQGTTVTVSS
VL: not shown
- Pseudovirus Neturalization [1]: > 50 µg/mL
- Pseudovirus Neturalization [2]: > 50 µg/mL
- Neutralization (Infectious virus; (µg/mL)) [3]: 20.6 µg/mL

B11: AB-009614 (antibody, V domains shown)
VH: QVQLVESGGGVVQPGRSLRLSCAASGFTFSSYGMHWVRQAPGKGLEWVAVISYDGSNKYYADSVKGRFTISRDNSKNTLYLQMNSLRAEDTAVYYCAKDQKYYDILTGYYRSTYYYYYYGMDVWGQGTTVTVSS
VL: not shown
- Pseudovirus Neturalization [1]: 0.142 µg/mL
- Pseudovirus Neturalization [2]: > 50 µg/mL
- Neutralization (Infectious virus; (µg/mL)) [3]: 0.075 µg/mL

B12: AB-009095 (antibody, V domains shown)
VH: EVQLVQSGAEVKKPGESLIISCTGSGYTFATFWITWVRQMPGKGLEWLGRIDPSDSYTNYNPSFQGHVTVSVDRSINTAYLELTSLKASDTAIYYCARQMYNTGWPIPNYSDYWGQGTLVTVSS
VL: QSALTQPPSASGSPGQSVTISCAGASTDVGVYNFVSWYQQHPGKAPKLIIFDVNKRPSGVPDRFSGSKSGNTASLTVSGLQAEDEADYYCSSYEVGNNFVFGTGTKVTVL
- Kd [8]: 0.176 nM
- koff [8]: 2.15e-07 s⁻¹
- kon [8]: 1220 M⁻¹ s⁻¹
- Kd [9]: 0.833 nM
- koff [9]: 5.93e-05 s⁻¹
- kon [9]: 71100 M⁻¹ s⁻¹

B13: AB-009615 (antibody, V domains shown)
VH: QVQLVESGGGVVQPGRSLRLSCAASGFTFSSYGMHWVRQAPGKGLEWVAVIWYDGSNKYYADSVKGRFTISRDNSKNTLYLQMNSLRAEDTAVYYCAKVGSPYCSGGSCYSGYFDYWGQGTLVTVSS
VL: not shown
- Pseudovirus Neturalization [1]: 27.7 µg/mL
- Pseudovirus Neturalization [2]: > 50 µg/mL
- Neutralization (Infectious virus; (µg/mL)) [3]: 12.3 µg/mL

B14: AB-009778 (antibody, V domains shown)
VH: QLQLQESGPGLVKPSETLSLTCTVSGGSISSSSYYWGWIRQPPGKGLEWIGSIYYSGSTYYNPSLKSRVTISVDTSKNQFSLKLSSVTAADTAVYYCARQFRRWLQLGPSYFDYWGQGTLVTVSS
VL: not shown
- Kd [4]: 48.5 nM
- koff [4]: 0.000866 s⁻¹
- kon [4]: 17800 M⁻¹ s⁻¹

B15: AB-009119 (antibody, V domains shown)
VH: EVQLVESGGGLVQPGGSLKLSCAASGFTFSGSAMHWVRQASGKGLEWVGRIRSKANSYATAYAASVKGRFTISRDDSKNTAYLQMNSLKTEDTAVYYCTRHGTTVNWGQGTLVTVSS
VL: not shown
- Kd [8]: 0.0583 nM
- koff [8]: 2.56e-07 s⁻¹
- kon [8]: 4390 M⁻¹ s⁻¹
- Kd [9]: 7.35 nM
- koff [9]: 0.000647 s⁻¹
- kon [9]: 88000 M⁻¹ s⁻¹

B16: AB-009213 (antibody, V domains shown)
VH: EVQLVESGGGLVKPGGSLRLSCAASGFTFSSYSMNWVRQAPGKGLEWVSSISSSSSYIYYADSVKGRFTISRDNAKNSLYLQMNSLRAEDTAVYYCARDKLREDGDYDDAFDIWGQGTMVTVSS
VL: not shown
- Kd [9]: 10 nM
- koff [9]: 0.00112 s⁻¹
- kon [9]: 112000 M⁻¹ s⁻¹

B17: AB-009799 (antibody, V domains shown)
VH: QVQLVQSGAEVKKPGASVKVSCKASGYTFTSYDINWVRQATGQGLEWMGWMNPNSGNTGYAQKFQGRVTMTRNTSISTAYMELSSLRSEDTAVYYCARGRLRITIFNRVYYFDYWGQGTLVTVSS
VL: not shown
- Kd [4]: 19.6 nM
- koff [4]: 0.000265 s⁻¹
- kon [4]: 13600 M⁻¹ s⁻¹

B18: AB-009760 (antibody, V domains shown)
VH: EVQLVQSGAEVKKPGESLKISCKGSGYSFTSYWIGWVRQMPGKGLEWMGIIYPGDSDTRYSPSFQGQVTISADKSISTAYLQWSSLKASDTAMYYCARSRSSDYFDYWGQGTLVTVSS
VL: not shown
- Pseudovirus Neturalization [1]: 4.1 µg/mL
- Pseudovirus Neturalization [2]: > 50 µg/mL
- Neutralization (Infectious virus; (µg/mL)) [3]: 32.8 µg/mL

B19: AB-009734 (antibody, V domains shown)
VH: QVHLVQSGAEVKTPGASVRVSCKASGYTFTSHYMHWVRQAPGQGLEWMGLINPSGSGTAYPQHFQGRVTMTRDTSTTTDYMDLSSLRSEDTAMYFCARMERSGAFDLWGQGTMVTVSS
VL: EIVLTQSPGTLSLSPGERATLSCRASQTISSRYLAWYYQKPGQAPRLLIQGSSIRATGIPDRFSGSGSGTDFTLTISRLEPEDFAVYYCQHYGSSPPMYTFGQGTKLEIK
- Pseudovirus Neturalization [1]: 42.4 µg/mL
- Pseudovirus Neturalization [2]: > 50 µg/mL
- Neutralization (Infectious virus; (µg/mL)) [3]: 21.4 µg/mL

B20: AB-009769 (antibody, V domains shown)
VH: EVQLVESGGGLVQPGGSLRLSCAASGFTFSSYWMSWVRQAPGKGLEWVANIKQDGSEKYYVDSVKGRFTISRDNAKNSLYLQMNSLRAEDTAVYYCARSPEVLWFGDPVLDNWFDPWGQGTLVTVSS
VL: SYELTQPPSVSVSPGQTARITCSGDALPKQYAYWYQQKPGQAPVLVIYKDSERPSGIPERFSGSSSGTTVTLTISGVQAEDEADYYCQSADSSGTYPVVFGGGTKLTVL
- Pseudovirus Neturalization [1]: > 50 µg/mL
- Pseudovirus Neturalization [2]: > 50 µg/mL
- Neutralization (Infectious virus; (µg/mL)) [3]: 24.5 µg/mL

B21: AB-009112 (antibody, V domains shown)
VH: QVQLVESGGGVVQPGRSLRLSCAASGFTFSSYAMHWVRQAPGKGLEWVAVISYDGSNKYYADSVKGRFTISRDNSKNTLYLQMNSLRAEDTAVYYCASSLVGATKSYYYYYYGMDVWGQGTTVTVSS
VL: SYELTQPLSVSVALGQTARITCGGNNIGSKNVHWYQQKPGQAPVLVIYRDSNRPSGIPERFSGSNSGNTATLTISRAQAGDEADYYCQVWDSSSVVFGGGTKLTVL
- Kd [9]: 32.7 nM
